Data reported in the RNAGym collection of RNA variant scans (doi:10.1073/pnas.2313332121).
Fewer inactive variants are shown than the library holds.

B1: TPR 5TU (parent)
chain: GGAUCUUCUCGAUCUAACAAAAAAGACAAAUCUGCCACAAAGCUUGAGAGCAUCUUCGGAUGCAGAGGCGGCAGCCUUCGGUGGCGCGAUAGCGCCAACGUUCUCAACUAUGACACGCAAAACGCGUGCUCCGUUGAAUGGAGUUUAUCAUG

Variants of: B1
Assay: polymerase ribozyme fitness, log enrichment relative to wild type (log ratio); higher = more active; in vitro selection for triplet polymerase activity
Procedure, shortened: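 Genotype fitness is the logarithm of its enrichment divided by wild-type enrichment, using inverse-variance-weighted averages of replicates. That logarithm is base 2. Enrichment was measured by Illumina sequencing of input and output libraries from one triplicate in vitro selection round, with frozen incubation at −7 °C, on PCR-built, transcribed mutant libraries of each subunit of a heterodimeric triplet polymerase ribozyme, retaining genotypes with ≥10 input reads and ≥1 read per output.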

Variant	polymerase ribozyme fitness (log ratio)
A30U U44G A52C C85G A107G G126C U134A A147G	≤ -4.2
A30U A73U G74U C76G U90G U139C	≤ -4.2
A30U U61G G68A C93U C103G A147C	≤ -4.2
A29U G50A G58C A60C G88A C116G U139A G141C G143C	-3.79
U31C A41G U53A U55A	-0.0378
A29U C96U	-3.19
A30U A37U U53A C87U	≤ -4.2
U31A C87G C114A	-4.03
A30G G46U G68U A147C	≤ -4.2
A29U G81U G92C C116G G140A U148C	≤ -4.2
A29U G86A A97G A142U G143A	≤ -4.2
A30U A49C A60U U77C U148A	≤ -4.2
A30U U61A G70C C96A U111G G140A	≤ -4.2
A29U G59C G88U C95G	≤ -4.2
A30U C38U	-3.76
A30C A41C G67C G83U G88U G141A	≤ -4.2
A30G A47C G48A	≤ -4.2
A30U G83U G88A U109C C125U G133C	≤ -4.2
A30G G50U C75A U78C G94C	≤ -4.2
U31A U144A	0.137
A29U U45A G70A C85G	≤ -4.2
A30C A64U G65A G70A G84U A91C C103U G136C C149G	≤ -4.2
A30C C38A C54U A60G G84U G141A G143A	≤ -4.2
A30G C87U A110U C131A G136U G141U	≤ -4.2

Variant	polymerase ribozyme fitness (log ratio)
U31A G81C C96G U111A G126A	≤ -4.2
U31A G84A G100A C108G C123G	≤ -4.2
U31A U90G	≤ -4.2
A30G C54G A121U U139A U145C	≤ -4.2
A30C C79A G88A A107G C116G A137G U144C	≤ -4.2
A30U G50C C96U U104C G136U	≤ -4.2
A30U A52U U78A	≤ -4.2
A30C G59C A60C C93A C99U C114A	≤ -4.2
U31A G86U	-0.886
A29U U77A G80A G92A U148C	≤ -4.2
A29U G34C G48C G80A U82A C105A A115G U151A	≤ -4.2
A30U A66U C85U A106C	≤ -4.2
A30G A150U	-2.97
A30G A91G	≤ -4.2
A30U A66G A115U G143A	≤ -4.2
A30C A47G G70U U102G G126U G152U	≤ -4.2
U31A G48C C85A	-2.98
A29U G59A G83C C125U	≤ -4.2
A30G G42U A52C C57A C96A A120G	≤ -4.2
A30U U55A G59A G70A C96G A97G	≤ -4.2
U31A U44A A52C G71U G83C G86A A97C U104A	≤ -4.2
A30U A52U C93A	≤ -4.2
A29U U53A U56A A64U U77C A98G C103G U148C	≤ -4.2
A30U U55G C57A C93U	-4.13

Variant	polymerase ribozyme fitness (log ratio)
A30G G71A C85G G141C	≤ -4.2
A30G U53A G62U A64G	≤ -4.2
A30U C38A C75G C85U G141C	≤ -4.2
A30G G42A	≤ -4.2
A30G C95A U104A C118U C131A A138U G141A	≤ -4.2
U31A G59A G84A U102G G128C A142C	≤ -4.2
U31A C125A	0.0765
A29U C36U	≤ -4.2
A30U A39G A98G C99U C105G	≤ -4.2
A30U C32G U55G G74A A89G C93A G133U A142C	≤ -4.2
U31A G46C C95U	-1.57
A30U U33C A138G	≤ -4.2
A29U C87U A122U U145C	-3.85
A29U C69A G84A G141A	≤ -4.2
A30G C38U A73U U78G C87G C105G	≤ -4.2
A30C U31C C32A G46C G50C G58U G88C U104C A122G	≤ -4.2
A29U C36U G62A U109G	≤ -4.2
A30U U55A	-2.96
A30U G50A C57A C75U C85A G140U G143A	≤ -4.2
A30G C75A G94U A137C G143U A150U	≤ -4.2
A30G G48U C76G C96U A97C U134G	≤ -4.2
A29U U134A	≤ -4.2
U31A C54G C57A C85G C123U	-3.47
A30C C93A A97G	≤ -4.2

Variant	polymerase ribozyme fitness (log ratio)
U31C A60C G92A C99A	≤ -4.2
A30U A91U U104G	≤ -4.2
U31A C57A C87U A97C G117A A119U	1.02
A30U C54G C95A A98U A122C G141C U144C	≤ -4.2
U31A U53G G84U C96G	≤ -4.2
U31A G50A C51G G59A G68C G86C G94U G124U	≤ -4.2
U31C A39C C54U A73G U90G G124A	≤ -4.2
A30G C76U C96U	≤ -4.2
A29U U31G C36U C69G G84A	≤ -4.2
A30C G48C G67A A91U G100U	≤ -4.2
U31A U44A G68A G81A U104G C125A	≤ -4.2
A30U A47C G50A C54G G92C C123G	≤ -4.2
A30U C32U G48A C51U U56G C76U	≤ -4.2
A30C G65A G67C G100A A119U	≤ -4.2
A30C G92C G126A	≤ -4.2
A30U A66G G68A C76U G141U A142U	≤ -4.2
A30G G86C A147C	≤ -4.2
A30U G62U U90G C95A A107C C118A A142G	≤ -4.2
U31A A39U C93G C95U C99U A107G A113U C132U U135C A138G	≤ -4.2
A29U U55A A60G G86A U130C	≤ -4.2
A29U C96U A106C U127G	≤ -4.2
A29U G50A C116U C129G	≤ -4.2
A30C U44G C108G U145G	≤ -4.2
A30U U82A C85A U104A	≤ -4.2

Variant	polymerase ribozyme fitness (log ratio)
U31A C54A G84A C96U C132U	-3.31
U31A C32A G59A C93G A113U A150C	≤ -4.2
A29U G50U C116U A147U	-4.04
A30G C43G G83A	≤ -4.2
A30U A122U	-2.62
U31C A40C G94A	1.25
A29U U109G C149G	≤ -4.2
U31A G83C C105U U127G G133A A137C	≤ -4.2
U31A U53A C95U A119G	-0.866
A30G A60G C93A C105G C132A A142U	≤ -4.2
A30U G84A C96U U144A	≤ -4.2
A30G C108U U109A	≤ -4.2
U31A A52C A91U	-4.06
A29U C35A A60G C85A G126A	≤ -4.2
A30G U44C G88C C105A	≤ -4.2
A30U G58C U90G C95A	≤ -4.2
A30G C54A C85G A120U C125U G136A	≤ -4.2
A30U G83U G141U	-3.89
U31A A73C	-4.13
A30G G48A G80U G88U U109C	≤ -4.2
A30C G59A	≤ -4.2
U31C A47U G88A C108A	≤ -4.2
A30C G68A C87U A106U A120G	≤ -4.2
A29U U44A A49C C57U G88U	≤ -4.2

Variant	polymerase ribozyme fitness (log ratio)
A29U G65A C87A A91C U109G	≤ -4.2
U31A U55A A97U U145G	-0.219
U31A C85U C114U	-1.15
A30C G67C G68A G88A C93A U135C G141C	≤ -4.2
U31A C69G A89U C96G U104A	-3.89
A30U C79U G83C	≤ -4.2
A30G U33A U55A A91C C132U A142U	≤ -4.2
U31C A60C C95A C99G A122G	-3.66
A30G C35U U56G A66G U82G C99U A119U G126A A142C	≤ -4.2
A30U G86A	-3.95
A29U G59C G62U C95U C116A	≤ -4.2
U31A C76U C93G	-2.71
A30C G81C A138G U146A C149U	≤ -4.2
A30U A52G G58A G70U C79U G83A C93U	≤ -4.2
A29U U31G A47C U61A G81A C95U G100U	≤ -4.2
A30G G42U A113U C114U C125U	≤ -4.2
U31A C76U C116U U127G	≤ -4.2
A30G A47U G50C G80C C96U C103U	≤ -4.2
U31C A60U A110G C118G U144C	-3.59
A30C G84A A115C C149U	≤ -4.2
A30G A41U U135A A137U	≤ -4.2
A30G C95U	-3.14
A30U A40G G50C G67A C76A C85U A89C C132U	≤ -4.2
A30U C35U G68U A120U	≤ -4.2

Variant	polymerase ribozyme fitness (log ratio)
A30C C93U A106U C131A A142C	-4.12
U31A C93A A115C	-1.71
U31C A52C C57U G59C C99U U145G	-3.63
U31A C96U A115C U146C	-0.845
A30C G48C G50U A98G A107G C118U A120C G141U	≤ -4.2
U31A U135G G143C	-3.93
A30G G58U C118U	-3.95
A30C U33A G68U A73U C95A C114A A121G	≤ -4.2
A30U G71C C95A	≤ -4.2
A30U C54U C85U	-3.87
A30C A142C U144C	≤ -4.2
A30C C57U G59C U82A G117A A138C	≤ -4.2
A30C G62U U90G C95A G124A A138C U151C	≤ -4.2
A29U U53G G81A G88C	≤ -4.2
A30U G68U A73U G140U	≤ -4.2
A30C G50C A66G G128U	≤ -4.2
U31A G59C C75U A91U U109G G112A	≤ -4.2
U31A A52C G58C G83A	-4.11
A30C C54U C69A G70A A137C	≤ -4.2
U31A C85G C96G A142C	≤ -4.2
A30C G48C A60G	≤ -4.2
A29U U111C C114G G140U	≤ -4.2
A30U G42A C85U A89G C99A A107C A122U C125A U144C C149A	≤ -4.2
